A protein production outcome set (Wang et al. 2014)

Assay: label from the status in PepcDB records

## MTELFIFDREDQLLTTLTESTGLVRALFREELNRVPNQPFAFTIEASSEEAKHVIEEHQVVFRDKEGDLRLFVIKELEDVDGLDGPQTTAICEPAFMELAEHMIVEQSVVNQPAHEALNVALQGTRWTGSVEVNLGNATEHFSYVSAIEAVWNILVTWGGDFKDVVTFNAENRITSHQIKIVQRRGVDRGKRFEIDHNIEQIERTILSYPVTALYGRGASLQGENGEDGSLDFGEVEWRKSAGAPVDKPKGQLWVGDPEALQKYGRKHNGQLLHREGIFQNTNIEDPEELLEKTWEQLQKSSKPEVHYRLSVRLFEHISGYEHEQASLGDTAIAIDRQFSRPIEIQSRIIAIEYDLVDIDGTGMVEMGQFLSLNGMDERLERIIEEIEKNQGKWGSSGTITRDKYPDIKPSAPVNLRAESGFQAIQLYWDYADELYIEHYEVYGSQVSDFVPDSQHLLWRGKVSAFAHFVDKDQQWYYYVRAVNFHGRPSDWSDKVSGSTQRIISDDILFGPDLAERLRELNRISDIIGEGGVNFEQISDHAKALLNQEARQYTDEEIRAVEDAINAELAEKAGLTYVEGKFSLIDSELEAVDGKFVSVSTQLAEIETEISLKAEQTQVDVIEGEITNVAQDLSQLTVSVNGVQSEVTSIRSGIGHLVEIVNGKATEYKLHFSFNASRDYLVLLTRADLTGARNYVAGTFFGRRVSGNVGSGKIEVIFNNSSNGDRASGYFEASEIQTLNGWSMVTCDYKGEKYIALRHQLPNEHDIWNTDTRFYGQIGSDSEMLLPVDNWGGNPDITNIQPFESSRPVATPIMRAETRIDQNSQQIALRATEINSLAGRMTQAEAELSVQATEIAARVEKDGIVTALNLSPEGIRIKGSLIHLDGTTLINDGVIQNAHIANAAITRAKLDTAVIGTAQIEDLAVTSAKIASVNADKINAASLSAISANLGTVTAGVMRSNNNNMELNLNTGTLNMRNTNFTLGSGADIEFTDPGNRLYFKQYDPVGNITRSAGFGIGRSINDRFPYGFLGTTNTTKPNPIDDQNFTGFITNTNQRMITDGIGNSVVGRIFHIRDQAVSFRKGVAFNFSDSTTMNIFPINTGSYDYVFGSNNNKWKDIHADNIRAAQVYIRNPVGTGGYLFETQPESGSATMVFRGINVSFSDWNYNLGTSSAPWNFGRINHLRPSGSSHSVGSFSERYNFVYTNTLVEGSDIKIKSDIKNSFLGLAFIKDLRPVDFQLVENEQYKTGLIAQEVAAELEHHGIDLEKQTIVTINDSVMGVSYTQLIAPTIKAIQELDSYVRDEVNSLKLENQRLKEKITKLEEKIA
  protein production: failed

## MTELMGQILGDRYELLRELGSHPGRRTYLALDRWHYEQVVLKLLLFGGGITWDDFKLFEREVAVLQTLDHPAIPRYLDYFEINTPDLKGFALVQTYIEAKSLALWQAEGRVFSEGDLRLLADRLLDILIYLHSRQPPVIHRDIKPTNILLGDRSGHDLGKVYLVDFGAVQTAIAGSTRTVVGTYGYMPPEQFGGKTLPASDLYALGMTLIYLATATPPDELPQKELRVQFQPLVSLSPPFIRWLEKMVAPALEERFDSATAARHALKQLDRSAEDASLITKTPPYGSRLQVRESPQGLLVHIPPVGLNASLFFLIPFAVAWNGFLVVWYSLAIASGFWLMAVFATGHLAVGLGLIGGILYRLLGWQVLMVSPKDLRFYEHILGFRWRHAKVLPLEVIEEIELQPRGTCRHQEDDRQQLWSKLVIRAGSQEIELTENAPRVTSRDLEWLAYTLGRYLGRRVTQARQDCRST
  protein production: failed

## MTEMELKLIKIDTSHYFEKKPGLGERVDYAGRCFYNKFQRVNAMLTSSLIQKHLKREIEIAHNLILRNDKVENIVFDYNGRNPERFYHKAQLLLREEGFMNFTAYNTKTPGHLHLYVHKGHTELGEGERLVKTLSMKLAQGLPKEWKVFPSNEWPKEFNILALPYEVFAKERGSSWAKHL
  protein production: not failed

## MTENAEKFLWGVATSAYQIEGATQEDGRGPSIWDAFAQRPGAIRDGSTGEPACDHYRRYEEDIALMQSLGVRAYRFSVAWPRILPEGRGRINPKGLAFYDRLVDRLLASGITPFLTLYHWDLPLALEERGGWRSRETAFAFAEYAEAVARALADRVPFFATLNEPWCSAFLGHWTGEHAPGLRNLEAALRAAHHLLLGHGLAVEALRAAGARRVGIVLNFAPAYGEDPEAVDVADRYHNRFFLDPILGKGYPESPFRDPPPVPILSRDLELVARPLDFLGVNYYAPVRVAPGTGTLPVRYLPPEGPATAMGWEVYPEGLYHLLKRLGREVPWPLYVTENGAAYPDLWTGEAVVEDPERVAYLEAHVEAALRAREEGVDLRGYFVWSLMDNFEWAFGYTRRFGLYYVDFPSQRRIPKRSALWYRERIARAQT
  protein production: not failed

## MTENGRYEYIVIGSEAAGVGLVRELTAAGKKVLAVDKSKEKIELLEDEGFDAVIADPTDESFYRSLDLEGVSAVLITGSDDEFNLKILKALRSVSDVYAIVRVSSPKKKEEFEEAGANLVVLVADAVKQAFMDKIKKMETL
  protein production: not failed

## MTENGRYEYIVIGSEAAGVGLVRELTAAGKKVLAVDKSKEKIELLEDEGFDAVIADPTDESFYRSLDLEGVSAVLITGSDDEFNLKILKALRSVSDVYAIVRVSSPKKKEEFEEAGANLVVLVADAVKQAFMDKIKKMETLKKIEKLKRIMESLRGKRLGIFTHDNPDPDSMSSAYALREIAKQFDVIADILYYGEILHQKNRAMVNLLEIPMIRAPEVDLSHYDAFAIVDSSGPGVNNSIPPDIDISIVIDHHPAEKVVAEFVDLREDVGATATILTEYIKELKITPSKILATALFFGIKSETDEFKRNTRTADFLACAFLYPFVDQDLIEKIESPSISTETLDILGTAIKNRQVYSSFLISFAGFINDRDALPQAADFLLKLEGISTVVVFGVIKDTVYVSARNKDVRIHMGEVLRRAFGDVGSAGGHAHAAGAQIPLGIFGETNEKDLLAKLITEAITKRLLSAVGMEQS
  protein production: failed

## MTENTFTDPSWLRLSCFIGVLLLCNLWENKLPRKTLTVKRSFRWLNNLSLVALNSAIIALVMPIAAFQAAAIAHDQQWGLFNLLSLPGWLNVLLAVIVLDLIIYVQHLVFHRVKPLWKIHRMHHADLDIDVTTGARFHPIEIIISMVVKITSVFILGVSPLAIVVFEIILNASAMFNHSNAKLALSIDKKLRKVIVTPDMHRVHHSVMVKETHSNFGFFLSVWDRWFGTYRAQPALGHNDVVIGVPEIREASEQRLDKLLTQPFRYREGKGKNVD
  protein production: not failed

## MTEPEGYRRFLQLVAHEFFHLWNVKRIRPKALEQFDYEAENYTPSLWFSEGATSYYDLLLPLRAGLYGVDSFLEALGKDLSRYLTTPGRKVQPLAESSFDAWVKLYRRDAYSDNQQMSYYLKGQLVCWLLDLEIRNHQPDLEHHHHHH
  protein production: failed

## MTEPYAVPVPRGYRVGVWEVHAPIATGAFGSVYAARRTGGDDTKASPTRPGGDDNTKAPPTRPGGDGTGHRPSRPGTTDTAGTDDSHGTGTGTGTGTPSRAQTDTAHPAEGDTDDPGHTSGNGTTGTDGTRRSHGTGTGTPSRAHTDTAHPAEGDTDNPGHTSGNGTTGTDGTGRSHGTGTGTGTHNPSRVQTGAAHPAKGDTDNPGRTGGDGTARRPGRAGVVGAGRGGDAGGEVPDTVALKFLPTGTGTPRQLAHLRDLVEREVELLRRLRRPRLIRMYETLTVDDPAHPRLDGATVLVLERAEGSLSALLAATPRPPAGPALLAQVCEGLQQLHRAGWVHGDLKPANVLLMADGSARLADFNMAAELEGTHAYTPAFATPDYTPPELLWSEIGERGRRIRPSADVWAFGVLAHLVLTGSFPLPGGTPTARRDAAVAYARGGHELRLSPEPPPGWREIVRACLTRTHADRIGTDALLRRVTGTTEGASGGAGFSPRTRARPRRRVLAALAAGLLALAALGYGVARWAGDGREPAAGPRPGGTGSVAAASYGAAELRTDRDVPPAYRLLIVETAHDCDREEVSPALIAAMLKVESDFDPDLADPAKDEYGIARWTPSVLRWWMNEDGTPGETVPQPPFPPAESVPAMGRYLCWIAPRLDAGLPGDRSVLVAVAYRTSYRKVNDAGGVPPKYRDYADRVAHHLKEYTPRRGK
  protein production: failed

## MTEQERLELEAAAFRRLVAHLDSRKDVQNIDLMNLSGFCRNCLSKWYKAAADEKHIDITLDDAREVVYGMPYSEWKANYQKEASAEQQAAFVKESKHD
  protein production: not failed

## MTERKLVAERNFEVNGYDIDAMGIVSNIVYIRWFEDLRTDFINQYMPYSDMMNQQISPILMNTEAEYKTPITIHDKPVGRCYLVKASKLRWEFEFEIESEDAVHCIGKQSGTFFDLQKKKVTRLPEVFQTILSLEHHHHHH
  protein production: failed
